According to publication PMC4361764, “TatBC-Independent TatA/Tat Substrate Interactions Contribute to Transport Efficiency” (PLoS ONE, 2015):

Molecular target: the molecule itself
Test: SEC; TatA-strep purified from the soluble fraction (Strep-Tactin), Superose 6, 10 mM Hepes pH 8.0, 150 mM NaCl, no detergent; Western blot of elution fractions

B1: Strep-tagged TatA from Escherichia coli (natural protein, UniProt P69428 1-89, looked up)
chain: MGGISIWQLLIIAVIVVLLFGTKKLGSIGSDLGASIKGFKKAMSDDEPKQDKTSQDADFTAKTIADKQADTNQEQAKTEDAKRHDKEQV
notes: TatA of Escherichia coli; The soluble form is a large association of many protomers; also called TatA-strep; soluble TatA-strep; source: E. coli DADE tatA-strep-tatBC (single-copy, wild-type level): in crude soluble extract; or purified from the soluble fraction (Strep-Tactin, Superose 6); not shown: Strep-tag, C-terminal, kept
- binding result: binds
